Experimental data: patent US20120101037A1 (Hoffmann-La Roche, published 2012)
Non-standard residues stand in square brackets, D forms with d. Groups on a side chain read outwards from the residue. Primed or numbered codes have the meaning given here. *: point of attachment. dPhe(3,5-F2) = N[C@H](Cc1cc(F)cc(F)c1)C(=O)O; dPhe(3-Cl) = N[C@H](Cc1cccc(Cl)c1)C(=O)O; dPhe(4-Cl) = N[C@H](Cc1ccc(Cl)cc1)C(=O)O; dPhe(2-Cl) = N[C@H](Cc1ccccc1Cl)C(=O)O; dPhe(3-F) = N[C@H](Cc1cccc(F)c1)C(=O)O; Desaminotyrosyl = O=C(CCc1ccc(O)cc1)*; dPhe(2-F) = N[C@H](Cc1ccccc1F)C(=O)O; dPhe(3,4,5-F3)′ = not defined here; Hydrocinnamoyl = O=C(CCc1ccccc1)*; SSA = succinimidyl succinamide

T1: human GIPR (glucose-dependent insulinotropic polypeptide receptor) (human, UniProt P48546 22-466)
T1 sequence (looked up): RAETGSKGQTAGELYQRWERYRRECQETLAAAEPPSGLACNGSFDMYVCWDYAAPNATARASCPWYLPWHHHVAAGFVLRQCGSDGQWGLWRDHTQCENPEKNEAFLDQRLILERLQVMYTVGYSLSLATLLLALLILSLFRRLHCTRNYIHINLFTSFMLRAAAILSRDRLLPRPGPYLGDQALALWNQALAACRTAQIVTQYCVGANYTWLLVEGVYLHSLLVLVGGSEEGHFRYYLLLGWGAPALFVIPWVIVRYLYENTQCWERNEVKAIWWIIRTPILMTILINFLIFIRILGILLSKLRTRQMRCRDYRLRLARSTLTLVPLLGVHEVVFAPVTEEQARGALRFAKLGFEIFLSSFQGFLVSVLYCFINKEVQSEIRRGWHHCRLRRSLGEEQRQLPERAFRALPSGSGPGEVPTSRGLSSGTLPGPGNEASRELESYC

B1: Ac-(D)-3-Pya-Ala-Glu-Gly-Thr-Phe-Ile-Ser-Asp-Tyr-Ser-Ile-Ala-Met-Asp-Lys-Ile-His-Gln-Gln-Asp-Phe-Val-Asn-Trp-Leu-Leu-Ala-Gln-Lys-NH2 (peptide)
peptide: AAEGTFISDYSIAMDKIHQQDFVNWLLAQK
modifications: position 1 is acetylated D-3-pyridylalanine (Ac-(D)3Pya); C-terminal amide (NH2)
B2: Ac-(D)Tyr-Ala-Glu-Gly-Thr-Phe-Ile-Ser-Asp-Tyr-Ser-Ile-Ala-Met-Asp-Ala-Ile-His-Gln-Gln-Asp-Phe-Val-Asn-Trp-Leu-Leu-Ala-Gln-Lys (epsilon-SSA-PEGm(20,000))-NH2 (peptide)
peptide: Ac-[dY]AEGTFISDYSIAMDAIHQQDFVNWLLAQK([SSA-PEGm 20,000])-NH2
B3: DesNH2-Phe-Ala-Glu-Gly-Thr-Phe-Ile-Ser-Asp-Tyr-Ser-Ile-Ala-Met-Asp-Lys-Ile-His-Gln-Gln-Asp-Phe-Val-Asn-Trp-Leu-Leu-Ala-Gln-Lys-NH2 (peptide)
peptide: [Hydrocinnamoyl]AEGTFISDYSIAMDKIHQQDFVNWLLAQK-NH2
modifications: also: 1:2 TFA salt
B4: Ac-2-Cl-(D)Phe-Ala-Glu-Gly-Thr-Phe-Ile-Ser-Asp-Tyr-Ser-Ile-Ala-Met-Asp-Lys-Ile-His-Gln-Gln-Asp-Phe-Val-Asn-Trp-Leu-Leu-Ala-Gln-Lys-NH2 (peptide)
peptide: Ac-[dPhe(2-Cl)]AEGTFISDYSIAMDKIHQQDFVNWLLAQK-NH2
modifications: also: 1:2 TFA salt
B5: Ac-3,5-DiF-(D)Phe-Ala-Glu-Gly-Thr-Phe-Ile-Ser-Asp-Tyr-Ser-Ile-Ala-Met-Asp-Lys-Ile-His-Gln-Gln-Asp-Phe-Val-Asn-Trp-Leu-Leu-Ala-Gln-Lys-NH2 (peptide)
peptide: Ac-[dPhe(3,5-F2)]AEGTFISDYSIAMDKIHQQDFVNWLLAQK-NH2
modifications: also: 1:2 TFA salt
B6: Ac-(D)Trp-Ala-Glu-Gly-Thr-Phe-Ile-Ser-Asp-Tyr-Ser-Ile-Ala-Met-Asp-Lys-Ile-His-Gln-Gln-Asp-Phe-Val-Asn-Trp-Leu-Leu-Ala-Gln-Lys-NH2 (peptide)
peptide: Ac-[dW]AEGTFISDYSIAMDKIHQQDFVNWLLAQK-NH2
modifications: also: 1:2 TFA salt
B7: Ac-3-F-(D)Phe-Ala-Glu-Gly-Thr-Phe-Ile-Ser-Asp-Tyr-Ser-Ile-Ala-Met-Asp-Lys-Ile-His-Gln-Gln-Asp-Phe-Val-Asn-Trp-Leu-Leu-Ala-Gln-Lys-NH2 (peptide)
peptide: Ac-[dPhe(3-F)]AEGTFISDYSIAMDKIHQQDFVNWLLAQK-NH2
modifications: also: 1:2 TFA salt
B8: Ac-Tyr-Ala-Glu-Gly-Thr-Phe-Ile-Ser-Asp-Tyr-Ser-Ile-Ala-Met-Asp-Lys-Ile-His-Gln-Gln-Asp-Phe-Val-Asn-Trp-Leu-Leu-Ala-Gln-Lys-NH2 (peptide)
peptide: Ac-YAEGTFISDYSIAMDKIHQQDFVNWLLAQK-NH2
modifications: also: 1:2 TFA salt
B9: Ac-2-F-(D)Phe-Ala-Glu-Gly-Thr-Phe-Ile-Ser-Asp-Tyr-Ser-Ile-Ala-Met-Asp-Lys-Ile-His-Gln-Gln-Asp-Phe-Val-Asn-Trp-Leu-Leu-Ala-Gln-Lys-NH2 (peptide)
peptide: Ac-[dPhe(2-F)]AEGTFISDYSIAMDKIHQQDFVNWLLAQK-NH2
modifications: also: 1:2 TFA salt
B10: Ac-(D)Tyr-Ala-Glu-Gly-Thr-Phe-Ile-Ser-Asp-Tyr-Ser-Ile-Ala-Met-Asp-Ala-Ile-His-Gln-Gln-Asp-Phe-Val-Asn-Trp-Leu-Leu-Ala-Gln-Lys-NH2 (peptide)
peptide: Ac-[dY]AEGTFISDYSIAMDAIHQQDFVNWLLAQK-NH2
modifications: also: 1:1 TFA salt
B11: Ac-(D)Phe-Ala-Glu-Gly-Thr-Phe-Ile-Ser-Asp-Tyr-Ser-Ile-Ala-Met-Asp-Lys-Ile-His-Gln-Gln-Asp-Phe-Val-Asn-Trp-Leu-Leu-Ala-Gln-Lys-NH2 (peptide)
peptide: Ac-[dF]AEGTFISDYSIAMDKIHQQDFVNWLLAQK-NH2
modifications: also: 1:2 TFA salt
B12: Ac-(D)Tyr-Ala-Glu-Gly-Thr-Phe-Ile-Ser-Asp-Tyr-Ser-Ile-Ala-Met-Asp-Ala-Ile-His-Gln-Gln-Asp-Phe-Val-Asn-Trp-Leu-Leu-Ala-Gln-Lys (epsilon-SSA-PEGm(30,000))-NH2 (peptide)
peptide: Ac-[dY]AEGTFISDYSIAMDAIHQQDFVNWLLAQK([SSA-PEGm 30,000])-NH2
B13: DesNH2-Tyr-Ala-Glu-Gly-Thr-Phe-Ile-Ser-Asp-Tyr-Ser-Ile-Ala-Met-Asp-Lys-Ile-His-Gln-Gln-Asp-Phe-Val-Asn-Trp-Leu-Leu-Ala-Gln-Lys-NH2 (peptide)
peptide: [Desaminotyrosyl]AEGTFISDYSIAMDKIHQQDFVNWLLAQK-NH2
modifications: also: 1:2 TFA salt
B14: Ac-(D)Tyr-Ala-Glu-Gly-Thr-Phe-Ile-Ser-Asp-Tyr-Ser-Ile-Ala-Met-Asp-Lys-Ile-His-Gln-Gln-Asp-Phe-Val-Asn-Trp-Leu-Leu-Ala-Gln-Lys-NH2 (peptide)
peptide: Ac-[dY]AEGTFISDYSIAMDKIHQQDFVNWLLAQK-NH2
modifications: also: 1:2 TFA salt
B15: Ac-3-Cl-(D)Phe-Ala-Glu-Gly-Thr-Phe-Ile-Ser-Asp-Tyr-Ser-Ile-Ala-Met-Asp-Lys-Ile-His-Gln-Gln-Asp-Phe-Val-Asn-Trp-Leu-Leu-Ala-Gln-Lys-NH2 (peptide)
peptide: Ac-[dPhe(3-Cl)]AEGTFISDYSIAMDKIHQQDFVNWLLAQK-NH2
modifications: also: 1:2 TFA salt
B16: Ac-3,4,5,F3-(D)Phe-Ala-Glu-Gly-Thr-Phe-Ile-Ser-Asp-Tyr-Ser-Ile-Ala-Met-Asp-Lys-Ile-His-Gln-Gln-Asp-Phe-Val-Asn-Trp-Leu-Leu-Ala-Gln-Lys-NH2 (peptide)
peptide: Ac-[dPhe(3,4,5-F3)′]AEGTFISDYSIAMDKIHQQDFVNWLLAQK-NH2
modifications: also: 1:2 TFA salt
B17: Ac-4-Cl-(D)Phe-Ala-Glu-Gly-Thr-Phe-Ile-Ser-Asp-Tyr-Ser-Ile-Ala-Met-Asp-Lys-Ile-His-Gln-Gln-Asp-Phe-Val-Asn-Trp-Leu-Leu-Ala-Gln-Lys-NH2 (peptide)
peptide: Ac-[dPhe(4-Cl)]AEGTFISDYSIAMDKIHQQDFVNWLLAQK-NH2
modifications: also: 1:2 TFA salt
B18: Ac-(D)Tyr-Ala-Glu-Gly-Thr-Phe-Ile-Ser-Asp-Tyr-Ser-Ile-Ala-Met-Asp-Ala-Ile-His-Gln-Gln-Asp-Phe-Val-Asn-Trp-Leu-Leu-Ala-Gln-Lys (epsilon-SSA-PEGm(12,000))-NH2 (peptide)
peptide: Ac-[dY]AEGTFISDYSIAMDAIHQQDFVNWLLAQK([SSA-PEGm 12,000])-NH2

Each binder was assayed against T1, human GIPR (glucose-dependent …) (assay: cell-based or functional assay).

Binder	% activation of cAMP	EC50 (nMol), cAMP
B1	102%	0.08 nmol
B2	102%	0.0049 nmol
B3	101%	0.797 nmol
B4	104%	0.121 nmol
B5	99.6%	0.003 nmol
B6	102%	0.1 nmol
B7	98%	0.058 nmol
B8	100%	–
B9	99.8%	0.0075 nmol
B10	100%	0.0005 nmol
B11	102%	0.685 nmol
B12	101%	0.0017 nmol
B13	103%	0.095 nmol
B14	102%	0.0007 nmol
B15	106%	0.072 nmol
B16	100%	0.104 nmol
B17	106%	0.025 nmol
B18	100%	0.0022 nmol
